Experiments:
[1] = molecular target: T1, D-amino acid oxidase (DAO; DDB0238432 protein) (Dictyostelium discoideum, UniProt Q556W1); assay: UV-visible spectrum of purified enzyme; type: binding; conditions: oxidized flavin, maxima around 360 and 450 nm; FAD in storage buffer
T1 construct: gene ddo-1; cDNA from EST clone in pET15b, N-terminal 6-His tag, expressed in E. coli Rosetta (DE3), Ni-NTA purified

[2] = substrate: C[C@@H](N)C(=O)O; assay: purified protein; conditions: oxidative deamination, 50 mM Tris-HCl pH 8.5, 20 μM FAD
[3] = substrate: N[C@H](CO)C(=O)O; assay: purified protein; conditions: oxidative deamination, 50 mM Tris-HCl pH 8.5, 20 μM FAD

| Molecule | UV-visible spectrum of purified enzyme [1] | Km [2] [mM] | kcat [2] [s⁻¹] | kcat/Km [2] [M⁻¹ s⁻¹] | Km [3] [mM] | kcat [3] [s⁻¹] | kcat/Km [3] [M⁻¹ s⁻¹] |
| --- | --- | --- | --- | --- | --- | --- | --- |
| Cc1cc2nc3c(=O)[nH]c(=O)nc-3n(C[C@H](O)[C@H](O)[C@H](O)COP(=O)(O)OP(=O)(O)OC[C@H]3O[C@@H](n4cnc5c(N)ncnc54)[C@H](O)[C@@H]3O)c2cc1C [FAD] | indicating that it possesses an oxidized form of the flavin cofactor | – | – | – | – | – | – |
| D-amino acid oxidase (DAO; DDB0238432 protein) (Dictyostelium discoideum) (protein) MNQNKNNNNKNPKINLLIIGCGCIGLSTGIIALKSGNYKSVSIWAKDLPPNTTSNKAAALWYPFLCNPLDLVGKWSAETMQYYKDHIINDPKSGTITKKVNEIFRRPHPEDPEWKPYIKSFRRARKDELPDGYVDGYAIDDGFVMDTDMYMDYLVDQFKSLGGIIEQRHLVDIREAFVDHDVVVNCTGLGSRELFNDRTIYPGRGQIIVIKNSTDRSIMDEEDHIAYVIPRLTNTVLGGTNQEHDYNTNPTKKDTEEILKRVAMISPRFAKNRIEIQGVKVGLRPARHEIRLENEFFEGGSKLVVHNYGHGGSGFTVSWGCAIEAIKLVDQGLPKLLHFNKLISKL | – | 0.78 ± 0.05 | 0.53 | 680 | 6.1 ± 0.78 | 0.05 | 10 |

Source: article PMC5928759, “D-Serine Metabolism and Its Importance in Development of Dictyostelium discoideum” (Frontiers in Microbiology, 2018)
